# Test results taken from the nanobody polyreactivity screen of Harvey et al. (2022).
# Assay: yeast display, Sf9 membrane polyspecificity reagent, FACS + sequencing; frameworks hold sequencing errors
# Procedure, shortened: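 Nanobodies came from a synthetic yeast display library in Saccharomyces cerevisiae BJ5465, induced with galactose for 36–48 hours and stained for 1 hour at 4 °C with 10% biotinylated, detergent-solubilized Sf9 membrane reagent. Cells were enriched on streptavidin microbeads and then FACS-sorted, with low and high (top ~1%) gates set on anti-HA fluorescence for expression and streptavidin fluorescence for reagent binding. Each polyreactivity label reflects the gate a clone came from. Genes were amplified by colony PCR, sequenced by MiSeq 2 × 250 and filtered by CDR length.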
row,Sequence,polyreactivity (PSR sort gate)
1,QVQLVESGGGLVQAGGSLRLSCAASGSIFLGNAMGWSRQAPGKERELVAAISSITGRTYYADSVKGRFTISRDNAKNTVYLQMNSLKPEDTAVYYCNKVKRSFIVNTDDYWGQGTQVTVSS,high polyreactivity
2,QVQLVESGGGLVQAGGSLRLSCAASGFIFAFYAMGRYRQAPGKERELVASISRRSGSTYYADSVKGRFTISRDNAKNTVYLQMNSLKPEDTALYYCAADRPPCETYGYDYWGQGTQVTVSS,low polyreactivity
3,QVQLVESGGGLVQAGGSLRLICAASGRIFRGYVMGWYRQAPGKERELVASIDRSGASTYYADSVKGRFTISRDNAKNTVYLQMNSLKPEDTAVYYCNALVYLRTSRYYYWGQGTQVTVSS,high polyreactivity
4,QVQLVESGGGLVQEGGSLRLSCADSGFIFRRYAMGWYIQAPGKERELVAAIRSDGSTNYADSVKGRFTISRDNAKNTVYLQMNSLKPEDTAVYYCAATYYSYTWFSQYYYWGQGTQVTVSS,high polyreactivity
5,QVQLVESGGGLVQAGGSLRLSCAASGSTFLRYAMGWYRQAPGKERELVAAISYRDGSTYYADSVKGRFTISRDNAKNTVYLQMNSLKPEDTAVYYCARGSWYRSAYYYWGQGTQVTVSS,high polyreactivity
6,QVQLVESGGGLVQAGGSLRLSCAASGSTFIHNAMGWYRQAPGNERELVAAITSGGSTYYADSVKGRFTISRDNAMNTVYLQMNSLKPEDTAVYYCNRGSWRYSTMEYWGQGTLVTVSS,high polyreactivity
7,QVQLVESGGGLVQAGGSLRLSCAASGFIYGFYVMGWYRQAPGKERELVAAITTSGDSTYYADSVKGRFTISRDNAKNTVFLQMNSLKPEDTAVYYCAADNVHSEYEYWGQGTQVTVSS,high polyreactivity
8,QVQLVESGGGLVQAGGSLRLSCAASGSTFRGNAMGWYRQAPWKEREFVASISRRGGRTNYADSVKGRFTISRDNAKNTVYLQMNSLKPEDTAVYYCAAGRYRYKYRYFTAWYGYWGQGTQVTVSS,high polyreactivity
9,QVQLVESGGGLVQAGGSLRLSCAASGRIFNSYAMGWYRQAPGKERELVAAISRNGGITYYADSVKGRFTISRDNAKNTVYLQMNSLKAEATAVYYCNADSSRRRYSSDYWGQGTQVTVSS,high polyreactivity
10,QVQLVESGGGLVQAGGSLRLSCAASGGTMLYYAMGWYRQAPRKEMELVAVITSSAGRTYYADSVKGRITISRDNAKITVYLLMNSLKPEDTAVSYCNATGYLVGSISIYDYWGQGTQVTVSS,low polyreactivity
11,QVQLVESGGGLVQAGGSLRLSCAAYGRTLGDYAMGWYRQAPGKERELVAAISSGGNTYYADSVKGRFTISRDNAKNTVYLQMKSVKPEDSAVYYCDAAHYYRSYWGQGTQETVSS,high polyreactivity
12,QVQLVESGGGLDQEGGSLRLSCAASGSIFFWNDMGWYRQAPGKERELVAAISWSGGSTSYADSVKGRFTISRDNAKNTVYLQMNSLKPEDTAVYYCAAEYTYGSPYDYWGQGTQVTVSS,low polyreactivity
13,QVQLVESGGGLVQAGGSLRLSCAASGFIFGVYAMGWYRQAPGKERELVAAITSTGSTYYADSVKGRFTISRDNAKNTVYLQMNSLKPEDTAVYYCATYYWLGLSLYDYWGQGTQVTVSS,low polyreactivity
14,QVQLVESGGGLVQAGGSLRLSCAASGITFWGYAMGWYRQAPGKEREFVARINWSGGRTYYAESVKGRFTISRDNAKNTVYLQMNSLKPEDTAVYYCAATSLIYCYRTYYYWGQGTQVTVSS,high polyreactivity
15,QVQLVESGGGLVQAGGSLRLSCASSGITFDKYAMGWYRQAPGKERELVAAISGSDGSTYYADSVKGRFTISRDNAKNTVYLQNNSLKPEDTAVYYCAAESEYAGTYEYDYWGQGNQVTVSS,low polyreactivity
16,QVQLVESGGGLVQAGGSLRLSCAASGISDWYAMGWSRQAPGKERELVASITDGGSTKYADSVKGRFTISRDNAKNTVYLQMNSLKPEDTAVYYCNNTFRVYFSRSWWSRYYYWGQGTQVTVSS,low polyreactivity
17,QVQLVESGGGLVQAGGSLRLSCAATGSLFLPYGMGWYSQAPGKERELVAAFSRGGGSTYYADSVKGRFTISRDNAKNTVYLQMNSLKPEDTAVYYCAVDNLKSRAQSLDGFDYWGQGTQVTVSS,high polyreactivity
